# Measurements taken from paper PMC11446282.
# Positions count from the first letter of the chain named.
# B1: CDCA4 K44: CDCA4, K44 to alanine (protein, UniProt Q9BXL8 1-241, looked up, variant K44A)
# Cell division …: MFARGLKRKCVGHEEDVEGALAGLKTVSSYSLQRQSLLDMSLVALQLCHMLVEPNLCRSVLIANTVRQIQEEMTQDGTWRTVAPQAAERAPLDRLVSTEILCRAAWGQEGAHPAPGLGDGHTQGPVSDLCPVTSAQAPRHLQSSAWEMDGPRENRGSFHKSLDQIFETLETKNPSCMEELFSDVDSPYYDLDTVLTGMMGGARPGPCEGLEGLAPATPGPSSSCKSDLGELDHVVEILVET
# B2: CDCA4 L61: CDCA4, L61 to alanine (protein, UniProt Q9BXL8 1-241, looked up, variant L61A)
# Cell division …: B1 Cell division … with A44K, L61A
# B3: CDCA4 V60: CDCA4, V60 to alanine (protein, UniProt Q9BXL8 1-241, looked up, variant V60A)
# Cell division …: B1 Cell division … with A44K, V60A
# B4: CDCA4 E53: CDCA4, E53 to alanine (protein, UniProt Q9BXL8 1-241, looked up, variant E53A)
# Cell division …: B1 Cell division … with A44K, E53A
# B5: CDCA4 L45: CDCA4, L45 to alanine (protein, UniProt Q9BXL8 1-241, looked up, variant L45A)
# Cell division …: B1 Cell division … with A44K, L45A
# B6: CDCA4 N55: CDCA4, N55 to alanine (protein, UniProt Q9BXL8 1-241, looked up, variant N55A)
# Cell division …: B1 Cell division … with A44K, N55A
# B7: CDCA4 P54: CDCA4, P54 to alanine (protein, UniProt Q9BXL8 1-241, looked up, variant P54A)
# Cell division …: B1 Cell division … with A44K, P54A
# B8: CDCA4 L42: CDCA4, L42 to alanine (protein, UniProt Q9BXL8 1-241, looked up, variant L42A)
# Cell division …: B1 Cell division … with L42A, A44K
# B9: CDCA4 I62: CDCA4, I62 to alanine (protein, UniProt Q9BXL8 1-241, looked up, variant I62A)
# Cell division …: B1 Cell division … with A44K, I62A
# B10: CDCA4 S59: CDCA4, S59 to alanine (protein, UniProt Q9BXL8 1-241, looked up, variant S59A)
# Cell division …: B1 Cell division … with A44K, S59A
# B11: CDCA4 C57: CDCA4, C57 to alanine (protein, UniProt Q9BXL8 1-241, looked up, variant C57A)
# Cell division …: B1 Cell division … with A44K, C57A
# B12: CDCA4 V52: CDCA4, V52 to alanine (protein, UniProt Q9BXL8 1-241, looked up, variant V52A)
# Cell division …: B1 Cell division … with A44K, V52A
# B13: CDCA4 L56: CDCA4, L56 to alanine (protein, UniProt Q9BXL8 1-241, looked up, variant L56A)
# Cell division …: B1 Cell division … with A44K, L56A
# B14: CDCA4 R58: CDCA4, R58 to alanine (protein, UniProt Q9BXL8 1-241, looked up, variant R58A)
# Cell division …: B1 Cell division … with A44K, R58A
# B15: CDCA4 Q46: CDCA4, Q46 to alanine (protein, UniProt Q9BXL8 1-241, looked up, variant Q46A)
# Cell division …: B1 Cell division … with A44K, Q46A
# B16: CDCA4 T65: CDCA4, T65 to alanine (protein, UniProt Q9BXL8 1-241, looked up, variant T65A)
# Cell division …: B1 Cell division … with A44K, T65A
# B17: CDCA4 N64: CDCA4, N64 to alanine (protein, UniProt Q9BXL8 1-241, looked up, variant N64A)
# Cell division …: B1 Cell division … with A44K, N64A
# B18: CDCA4 V66: CDCA4, V66 to alanine (protein, UniProt Q9BXL8 1-241, looked up, variant V66A)
# Cell division …: B1 Cell division … with A44K, V66A
# B19: CDCA4 V43: CDCA4, V43 to alanine (protein, UniProt Q9BXL8 1-241, looked up, variant V43A)
# Cell division …: B1 Cell division … with V43A, A44K
# B20: RBM7 Q153: RBM7, Q153 to alanine (protein, UniProt Q9Y580 2-266, looked up, variant Q153A)
# RNA-binding protein 7: GAAAAEADRTLFVGNLETKVTEELLFELFHQAGPVIKVKIPKDKDGKPKQFAFVNFKHEVSVPYAMNLLNGIKLYGRPIKIQFRSGSSHAPQDVSLSYPQHHVGNSSPTSTSPSRYERTMDNMTSSAQIIQRSFSSPENFQRQAVMNSALRAMSYGGKFGSSPLDQSGFSPSVQSHSHSFNQSSSSQWRQGTPSSQRKVRMNSYPYLADRHYSREQRYTDHGSDHHYRGKRDDFFYEDRNHDDWSHDYDNRRDSSRDGKWRSSRH
# B21: RBM7 E139: RBM7, E139 to alanine (protein, UniProt Q9Y580 2-266, looked up, variant E139A)
# RNA-binding protein 7: B20 RNA-binding protein 7 with E138A, A152Q
# B22: RBM7 V146: RBM7, V146 to alanine (protein, UniProt Q9Y580 2-266, looked up, variant V146A)
# RNA-binding protein 7: B20 RNA-binding protein 7 with V145A, A152Q
# B23: RBM7 N140: RBM7, N140 to alanine (protein, UniProt Q9Y580 2-266, looked up, variant N140A)
# RNA-binding protein 7: B20 RNA-binding protein 7 with N139A, A152Q
# B24: RBM7 R143: RBM7, R143 to alanine (protein, UniProt Q9Y580 2-266, looked up, variant R143A)
# RNA-binding protein 7: B20 RNA-binding protein 7 with R142A, A152Q
# B25: RBM7 F141: RBM7, F141 to alanine (protein, UniProt Q9Y580 2-266, looked up, variant F141A)
# RNA-binding protein 7: B20 RNA-binding protein 7 with F140A, A152Q
# B26: RBM7 Q142: RBM7, Q142 to alanine (protein, UniProt Q9Y580 2-266, looked up, variant Q142A)
# RNA-binding protein 7: B20 RNA-binding protein 7 with Q141A, A152Q
# B27: RBM7 P138: RBM7, P138 to alanine (protein, UniProt Q9Y580 2-266, looked up, variant P138A)
# RNA-binding protein 7: B20 RNA-binding protein 7 with P137A, A152Q
# System: PP2A-B55α
# Test: Single alanine mutational scan, YFP-tagged interactors immunoprecipitated from HeLa cells, Western blot
# Assay type: binding, human
# Details: single alanine mutant of YFP-tagged CDCA4
# Method: Standard cloning techniques were used throughout. Point mutations were introduced by whole plasmid polymerase chain reaction (PCR). All constructs were fully sequenced. Synthetic DNA was purchased from GeneArt, Life Technologies and cloned into pcDNA5/FRT/TO (Invitrogen) expression vector containing YFP, resulting in the indicated YFP fusion proteins. These constructs were transiently transfected into HeLa cells 24 hours before harvesting cells. Cells were lysed in lysis buffer [50 mM tris-HCl (pH 7.5), 50 mM NaCl, 1 mM EDTA, 1 mM […], and 0.1% NP-40]. Complexes were immunoprecipitated at 4°C in lysis buffer with green fluorescent protein (GFP)–Trap (ChromoTek) and washed in lysis buffer. Precipitated protein complexes were washed three times in lysis buffer, eluted in 2× SDS sample buffer, and subjected to Western blotting or MS as indicated.
row,Molecule,Experimental % binding [%]
1,B1,22
2,B2,28
3,B3,47
4,B4,153
5,B5,86
6,B6,99
7,B7,66
8,B8,129
9,B9,7
10,B10,64
11,B11,91
12,B12,82
13,B13,42
14,B14,37
15,B15,61
16,B16,28
17,B17,57
18,B18,38
19,B19,81

# Same assay, conditions: single alanine mutant of YFP-tagged RBM7
row,Molecule,Experimental % binding [%]
1,B20,131
2,B21,77
3,B22,7
4,B23,5
5,B24,5
6,B25,4
7,B26,67
8,B27,92
